Source: US20190300590A1 (PROTAGONIST THERAPEUTICS, published 2019)
Bridges are numbered along the chain shown (N, C = ends). Where no end group is shown, it is not given here. [ ]: non-standard residue; d: D form. 2Nal = N[C@@H](Cc1ccc2ccccc2c1)C(=O)O; AEF = NCCOc1ccc(C[C@H](N)C(=O)O)cc1; AllylGly = C=CC[C@H](N)C(=O)O; DIG = diglycolic acid linker; Pen = CC(C)(S)[C@H](N)C(=O)O; Thp = NC1(C(=O)O)CCOCC1; Abu = CC[C@H](N)C(=O)O; AEA = NCCOCC(=O)O

Experiments:
IL-23R on DB cells = molecular target: T1, IL-23R on DB cells (human, UniProt Q5VWK5 24-629); assay: cell-based or functional assay
T1 sequence (looked up): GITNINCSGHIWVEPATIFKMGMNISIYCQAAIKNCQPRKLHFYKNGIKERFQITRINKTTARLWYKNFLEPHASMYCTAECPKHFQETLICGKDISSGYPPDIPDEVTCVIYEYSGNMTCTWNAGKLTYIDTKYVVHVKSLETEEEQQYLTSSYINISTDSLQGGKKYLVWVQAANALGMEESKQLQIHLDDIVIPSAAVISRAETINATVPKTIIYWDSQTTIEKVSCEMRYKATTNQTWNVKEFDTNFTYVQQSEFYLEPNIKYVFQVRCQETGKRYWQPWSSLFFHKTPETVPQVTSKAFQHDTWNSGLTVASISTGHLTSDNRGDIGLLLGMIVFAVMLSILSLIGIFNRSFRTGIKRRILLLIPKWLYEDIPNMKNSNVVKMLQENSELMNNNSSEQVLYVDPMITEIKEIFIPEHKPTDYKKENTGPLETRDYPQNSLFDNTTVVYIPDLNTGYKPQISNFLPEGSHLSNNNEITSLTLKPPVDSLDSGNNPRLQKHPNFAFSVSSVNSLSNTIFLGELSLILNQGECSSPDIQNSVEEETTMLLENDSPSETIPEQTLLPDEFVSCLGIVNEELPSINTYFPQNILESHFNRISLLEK

Rat IL-23R_huFC [1] = molecular target: T2, Rat IL-23R_huFC (rat, UniProt F1LX96 39-369); assay: rat IL-23R competitive binding ELISA
T2 sequence: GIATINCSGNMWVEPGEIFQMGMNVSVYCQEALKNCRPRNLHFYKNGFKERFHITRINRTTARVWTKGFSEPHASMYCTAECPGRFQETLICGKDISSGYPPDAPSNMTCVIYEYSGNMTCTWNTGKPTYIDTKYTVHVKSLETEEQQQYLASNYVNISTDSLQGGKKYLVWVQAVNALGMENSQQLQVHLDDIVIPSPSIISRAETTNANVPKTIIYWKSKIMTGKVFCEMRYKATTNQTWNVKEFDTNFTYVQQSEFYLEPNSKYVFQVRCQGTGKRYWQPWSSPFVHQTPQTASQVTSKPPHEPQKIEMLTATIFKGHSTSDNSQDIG

[2] = molecular target: IL-12Rb1_huFC/IL-23R_huFC (human, UniProt P42701 24-540; Q5VWK5 24-353); assay: SPR, mixed IL-12Rb1_huFC/IL-23R_huFC surface, IL-23 as analyte
[3] = molecular target: recombinant human IL-12Rβ1_huFC (RnD) (human, UniProt P42701 24-540); assay: SPR, IL-12Rb1_huFC captured on anti-human IgG, IL-23 as analyte
IL23R_huFC [4] = molecular target: T3, IL23R_huFC (human, UniProt Q5VWK5 24-353); assay: human ELISA vs IL-23
T3 sequence (looked up): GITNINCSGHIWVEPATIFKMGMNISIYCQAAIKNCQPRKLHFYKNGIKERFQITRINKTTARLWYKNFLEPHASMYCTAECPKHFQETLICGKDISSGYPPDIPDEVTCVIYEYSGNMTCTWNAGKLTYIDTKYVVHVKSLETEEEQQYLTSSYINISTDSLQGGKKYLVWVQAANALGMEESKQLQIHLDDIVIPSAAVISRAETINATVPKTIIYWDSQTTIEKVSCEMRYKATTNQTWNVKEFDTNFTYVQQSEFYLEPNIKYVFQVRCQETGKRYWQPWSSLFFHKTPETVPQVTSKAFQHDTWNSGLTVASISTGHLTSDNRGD

Rat IL-23R_huFC [5] = molecular target: Rat IL-23R_huFC (rat); assay: rat ELISA vs IL-23
Rat IL-23R_huFC [6] = molecular target: T4, Rat IL-23R_huFC (rat; human, UniProt F1LX96 39-369); assay: rat IL-23R competitive ELISA
T4 sequence: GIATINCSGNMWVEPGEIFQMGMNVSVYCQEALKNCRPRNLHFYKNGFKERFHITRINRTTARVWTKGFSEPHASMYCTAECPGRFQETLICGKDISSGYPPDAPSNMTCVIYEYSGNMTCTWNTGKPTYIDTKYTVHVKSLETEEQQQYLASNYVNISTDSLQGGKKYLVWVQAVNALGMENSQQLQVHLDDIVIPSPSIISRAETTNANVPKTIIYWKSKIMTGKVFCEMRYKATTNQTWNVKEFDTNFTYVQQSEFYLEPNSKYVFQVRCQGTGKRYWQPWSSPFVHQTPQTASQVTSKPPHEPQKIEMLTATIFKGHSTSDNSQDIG

IL23R_huFC [7] = molecular target: T3, IL23R_huFC; assay: human ELISA vs IL-23; remark: listed apart in the source
[8] = molecular target: T5, IL-23R on human cells (IL-23R-expressing DB cells; human NK cells) (human, UniProt Q5VWK5 24-629); assay: cell-based or functional assay
T5 sequence (looked up): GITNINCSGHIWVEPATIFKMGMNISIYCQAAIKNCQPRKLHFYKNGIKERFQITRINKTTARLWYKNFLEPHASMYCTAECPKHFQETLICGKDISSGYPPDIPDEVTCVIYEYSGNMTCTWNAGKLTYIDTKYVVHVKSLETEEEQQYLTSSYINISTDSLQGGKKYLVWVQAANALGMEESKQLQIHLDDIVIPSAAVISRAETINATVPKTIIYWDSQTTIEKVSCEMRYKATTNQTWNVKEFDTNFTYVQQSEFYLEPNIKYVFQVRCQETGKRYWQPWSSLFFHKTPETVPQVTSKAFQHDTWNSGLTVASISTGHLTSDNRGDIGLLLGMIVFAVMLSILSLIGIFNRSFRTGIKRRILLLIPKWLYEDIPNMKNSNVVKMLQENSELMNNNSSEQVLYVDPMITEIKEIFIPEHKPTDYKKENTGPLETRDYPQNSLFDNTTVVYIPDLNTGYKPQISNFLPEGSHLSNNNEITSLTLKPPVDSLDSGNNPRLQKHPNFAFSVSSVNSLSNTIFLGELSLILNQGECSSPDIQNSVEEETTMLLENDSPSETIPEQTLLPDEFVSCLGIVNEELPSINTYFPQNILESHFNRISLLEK

IL23R_huFC [9] = molecular target: T3, IL23R_huFC; assay: human ELISA vs IL-23; remark: listed apart in the source
Rat IL-23R_huFC [10] = molecular target: Rat IL-23R_huFC (rat); assay: rat ELISA vs IL-23; remark: listed apart in the source
Rat IL-23R_huFC [11] = molecular target: Rat IL-23R_huFC (rat); assay: IL-23/IL-23R competitive binding ELISA, rat
Cyno IL-23R_huFC = molecular target: T6, Cyno IL-23R_huFC (cyno, UniProt G7NWY5 24-353); assay: IL-23/IL-23R competitive binding ELISA, cyno
T6 sequence: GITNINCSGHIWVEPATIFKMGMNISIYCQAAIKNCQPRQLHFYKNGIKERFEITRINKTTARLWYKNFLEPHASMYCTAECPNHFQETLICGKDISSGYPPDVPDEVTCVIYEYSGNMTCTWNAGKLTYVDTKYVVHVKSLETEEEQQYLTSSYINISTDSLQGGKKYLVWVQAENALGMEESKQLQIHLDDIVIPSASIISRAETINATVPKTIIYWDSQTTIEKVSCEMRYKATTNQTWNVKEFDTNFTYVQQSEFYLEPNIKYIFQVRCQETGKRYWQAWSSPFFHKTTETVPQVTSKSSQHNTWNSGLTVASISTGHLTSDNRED

Rat IL-23R_huFC [12] = molecular target: Rat IL-23R_huFC (rat); assay: rat ELISA vs IL-23; remark: listed apart in the source
IL23R_huFC [13] = molecular target: T7, IL23R_huFC (human, UniProt Q5VWK5 24-353); assay: IL23-IL23R competitive ELISA, IC50 grade
T7 sequence (looked up): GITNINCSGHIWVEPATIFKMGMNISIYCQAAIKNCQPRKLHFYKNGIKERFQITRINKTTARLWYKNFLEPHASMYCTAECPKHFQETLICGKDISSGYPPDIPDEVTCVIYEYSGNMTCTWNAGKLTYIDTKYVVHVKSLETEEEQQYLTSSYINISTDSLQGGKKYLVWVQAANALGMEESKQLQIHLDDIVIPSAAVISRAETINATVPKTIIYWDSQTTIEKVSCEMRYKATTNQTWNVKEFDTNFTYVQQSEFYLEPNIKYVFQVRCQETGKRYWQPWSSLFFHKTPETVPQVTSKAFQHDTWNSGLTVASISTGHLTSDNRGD

[14] = molecular target: T5, IL-23R on human cells …; assay: cell-based or functional assay; remark: listed apart in the source

For CQTWQCYWXENG (not fully specified; Ac; Ogl; NH2) [Ac-CQTWQCYW-[Ogl]-ENG-NH2], the “pStat3 HTRF IC50” value (IL-23R on DB cells) was 76 nM.

B1: Ac-CSTWQCYWLKHGGE-NH2 (peptide)
peptide: Ac-CSTWQCYWLKHGGE-NH2
modifications: disulfide 1-6
SMILES: CC(=O)N[C@H]1CSSC[C@@H](C(=O)N[C@@H](Cc2ccc(O)cc2)C(=O)N[C@@H](Cc2c[nH]c3ccccc23)C(=O)N[C@@H](CC(C)C)C(=O)N[C@@H](CCCCN)C(=O)N[C@@H](Cc2c[nH]cn2)C(=O)NCC(=O)NCC(=O)N[C@@H](CCC(=O)O)C(N)=O)NC(=O)[C@H](CCC(N)=O)NC(=O)[C@H](Cc2c[nH]c3ccccc23)NC(=O)[C@H]([C@@H](C)O)NC(=O)[C@H](CO)NC1=O
B1 was tested, and the IC50 (Rat IL-23R_huFC [1]) was 24 nM and the “pStat3 HTRF IC50” value (IL-23R on DB cells) was 2 nM.

B2: Recombinant human IL-23 (Humanzyme) (ligand)
chain 1: RAVPGGSSPAWTQCQQLSQKLCTLAWSAHPLVGHMDLREEGDEETTNDVPHIQCGDGCDPQGLRDNSQFCLQRIHQGLIFYEKLLGSDIFTGEPSLLPDSPVGQLHASLLGLSQLLQPEGHHWETQQIPSLSPSQPWQRLLLRFKILRSLQAFVAVAARVFAHGAATLSP
chain 2: IWELKKDVYVVELDWYPDAPGEMVVLTCDTPEEDGITWTLDQSSEVLGSGKTLTIQVKEFGDAGQYTCHKGGEVLSHSLLLLHKKEDGIWSTDILKDQKEPKNKTFLRCEAKNYSGRFTCWWLTTISTDLTFSVKSSRGSSDPQGVTCGAATLSAERVRGDNKEYEYSVECQEDSACPAAEESLPIEVMVDAVHKLKYENYTSSFFIRDIIKPDPPKNLQLKPLKNSRQVEVSWEYPDTWSTPHSYFSLTFCVQVQGKSKREKKDRVFTDKTSATVICRKNASISVRAQDRYYSSSWSEWASVPCS
In the case of B2, the Kd [2] is reported as 0.18 nM, the koff [2] is reported as 0.000115 s⁻¹ and the kon [2] is reported as 631000 M⁻¹ s⁻¹. It also gave a Kd [3] of 0.87 nM, a koff [3] of 0.000438 s⁻¹ and a kon [3] of 501000 M⁻¹ s⁻¹.

B3: [Ac-Cyclo-[[Abu]-QTWQC]-[Phe]4-(2-aminoethoxy)]]-[2-Nal]-[Aib]-QNG-NH2]2DIG (peptide)
peptide: XQTWQCFXXQNG
modifications: not fully specified; as bracketed in name; thioether cyclo; DIG linker through Phe[4-(2-aminoethoxy)]
B3 showed an IC50 (IL23R_huFC [4]) of 25 to 100 nM.

With Ac-[Pen]RTWQCYWRKFG[AEA][dK]-NH2 (disulfide 1-6 (inferred)) [Ac-[Pen]-RTWQCYWRKFG-[AEA]-[(D)-Lys]-NH2] the IC50 (Rat IL-23R_huFC [5]) was 100 to 1000 nM.

In the case of CQTWQCYWRXNGXK (Ac-; [Aib]; [AEA]; [(D)Lys]; -NH2) [Ac-CQTWQCYWR-[Aib]-NG-[AEA]-[(D)Lys]-NH2], the IC50 (Rat IL-23R_huFC [6]) is reported as 1060 nM.

For [AllylGly]ADWV[AllylGly]YWHTFG (staple 1-6 (inferred)) [SEQ ID NO. 1000 peptide (drawing CHEM-US-00114)], the IC50 (IL23R_huFC [7]) was roughly 20000 nM.

B4: [Ac-[(D)Lys]-Cyclo-[[Abu]-QTWQC]-[Phe(4-OMe)]-[2-Nal]-[α-MeLys]-ENG-NH2]2 PEG25 (peptide)
peptide: KXQTWQCFXKENG
modifications: not fully specified; as bracketed in name; thioether cyclo; PEG25 linker through α-MeLys
For B4, the “pStat3 HTRF IC50” value [8] was less than 10 nM, the IC50 (IL23R_huFC [9]) was less than 10 nM and the IC50 (Rat IL-23R_huFC [10]) was 10 to 25 nM.

Binder Ac-[Abu]QTWQC[AEF][2Nal][Thp]ENN-NH2 (thioether 1-6) [Peptide 980] has an IC50 (Rat IL-23R_huFC [11]) of 3 nM and an IC50 (Cyno IL-23R_huFC) of 1.3 nM.

Binder XADWVCYWHTFGXK (as bracketed in name; cyclized via Cys and Pen) [Ac-[(D)Pen]-ADWVCYWHTFG-[AEA]-[(D)-Lys]-NH2] has an IC50 (Rat IL-23R_huFC [12]) of 1000 to 10000 nM.

For Ac-CADWVCYWHTK(DIG)G-OH (cysteine pairing not given here; also: dimer through DIG on Lys) [(Ac-CADWVCYWHTKG-OH)2DIG], the IC50 (IL23R_huFC [13]) was 1000 to 10000 nM.

B5: [Ac-Cyclo-[[Abu]-QTWQC]-[Phe(4-OMe)]-[2-Nal]-[α-MeLys+-ENG-NH2]2DIG (peptide)
peptide: XQTWQCFXKENG
modifications: not fully specified; as bracketed in name; thioether cyclo; DIG linker through a-MeLys
For B5, the “NK cell assay IC50 (IFNγ)” value [14] was less than 25 nM, the “pStat3 HTRF IC50” value [8] was less than 10 nM and the IC50 (IL23R_huFC [9]) was less than 10 nM. The IC50 (Rat IL-23R_huFC [10]) was 10 to 25 nM.
